Blank lines part the entries; values can stand above or below the compound they belong to. Starred links: 1 amine or outer side, 2 acyl side, 3 side chain; linkers in the order of their positions; H or OH if unused. Non-standard residues stand in square brackets, D forms with d. Residues, ends and D or L forms follow the SMILES beside them. *: point of attachment. X1 = C[N+](C)(C)CCOP(=O)([O-])OCCCCCCCCCCCCCCCCCCc1ccc(C(=O)*)cc1; Dolaproine = CO[C@@H]([C@@H]1CCCN1)[C@@H](C)C(=O)O; Dil = CC[C@H](C)[C@H](NC)[C@@H](CC(=O)O)OC; PABC = O=C(OCc1ccc(N[*:1])cc1)[*:2]; X2 = C[C@@H](N*)[C@@H](O)c1ccccc1; Cit = NC(=O)NCCC[C@H](N)C(=O)O; NMeV = CN[C@H](C(=O)O)C(C)C
Assays:
[1] = Cyprotex Plasma Stability assay, human plasma; format: in vitro ADME
Experimental: To determine whether cytotoxic PDCs are tolerated in vivo, C57BL/6 mice were dosed in the following manner: PDC-SM2 was dosed on days 0, 3 and 7 at dose levels of 0.5 mg/kg, 1.0 mg/kg, or 2.0 mg/kg; Payload alone was dosed on day 0 only at 0.25 mg/kg, 0.4 mg/kg, or 0.5 mg/kg; vehicle was dosed on day 0, 3 and 7. […] Payload dose of 0.5 mg/kg was not tolerated, two mice died by day 4 following a single infusion and all mice were sacrificed on day 5 (FIG. 5). […] Plasma stability was measured using Cyprotex’s Plasma Stability assay. The samples were at a concentration of 1 µM and were incubated at 0, 15, 30, 60 and 120 minutes. A positive control compound which undergoes degradation in plasma was used. The percent of the compound remaining at each incubation time point was measured. […] Overall, PDCs offer a novel and unique approach to targeting small molecules to tumor cells.

[2] = Cyprotex Plasma Stability assay, mouse plasma; format: in vitro ADME
Experimental: To determine whether cytotoxic PDCs are tolerated in vivo, C57BL/6 mice were dosed in the following manner: PDC-SM2 was dosed on days 0, 3 and 7 at dose levels of 0.5 mg/kg, 1.0 mg/kg, or 2.0 mg/kg; Payload alone was dosed on day 0 only at 0.25 mg/kg, 0.4 mg/kg, or 0.5 mg/kg; vehicle was dosed on day 0, 3 and 7. […] Plasma stability was measured using Cyprotex’s Plasma Stability assay. The samples were at a concentration of 1 µM and were incubated at 0, 15, 30, 60 and 120 minutes. A positive control compound which undergoes degradation in plasma was used. The percent of the compound remaining at each incubation time point was measured.

[3] = test system: MCF-7 breast cancer cells; details: FIG. 7
Experimental: The breast cancer cells were maintained in minimum essential medium supplemented with 10% FBS. All cells were maintained at 37° C. and 5% CO2. […] In vitro cytotoxicity was determined by Cell Titer-Glo® assay using MCF-7 breast cancer cells and Hs578T triple negative breast cancer cells.

[4] = test system: HCC70 triple negative breast cancer (TNBC) xenografts; assay: In vivo efficacy in TNBC xenograft model; parameters: species or system R2G2 mice
Experimental: In vivo efficacy was further assessed in R2G2 mice bearing HCC70 triple negative breast cancer (TNBC) xenografts. Three doses (1 mg/kg) given once, twice or 3 times per week for 2 weeks of CLR2000045 were assessed. CLR2000045 was administered systemically by injection of the tail vein. Each group contained 10 mice. Tumor volume was monitored for efficacy and body weight for tolerability. Survival was also monitored.
The study was initiated when group mean tumor volume reached ~200 mm^3 (Day 4). CLR2000045 was dosed IV at the following doses: 1 mg/kg on either day 5 and 12 or day 5, 8, 12 and 15 or day 5, 7, 9, 12, 14, and 16. […] Changes in body weight post treatment were measured in the (HCC70) mouse xenograft model (FIG. 11A and FIG. 11B).

[5] = test system: MCF-7 breast cancer cells; assay: In vitro uptake and release of CLR2000045, LC/MS/MS; format: cell-based
Experimental: (§1) In vitro uptake of CLR2000045 was assessed using MCF-7 breast cancer cells and normal human dermal fibroblasts (NHDF) cells and was measured via LC/MS/MS. The breast cancer cells were maintained in minimum essential medium supplemented with 10% FBS. All cells were maintained at 37° C. and 5% CO2. Cells were incubated with 1 µM of drug and reported values were the average of triplicate assessments. In vitro cytotoxicity was determined by Cell Titer-Glo® assay using MCF-7 breast cancer cells and Hs578T triple negative breast cancer cells.

[6] = test system: Hs578T triple negative breast cancer cells; assay: In vitro cytotoxicity, Cell Titer-Glo assay; format: cell-based; details: FIG. 7
Experimental: as §1
Between 24 and 48 hours a steady state between uptake and release of the warhead was achieved (FIG. 6). […] Half maximal inhibitory concentration (IC50) was measured in the cell lines (TABLE 2). Plasma stability of CLR2000045 was also measured (TABLE 3).

[7] = test system: normal human dermal fibroblasts (NHDF) cells; assay: In vitro uptake of CLR2000045, LC/MS/MS; format: cell-based; details: 1 µM
Experimental: as §1

[8] = test system: HCT 116 xenografts; assay: In vivo efficacy in colorectal cancer xenograft model; parameters: species or system athymic nude mice; details: 10 mg/kg on day 1 and 4
Experimental: CLR180099 was administered intravenously (IV) to healthy C57BL/6 mice to determine the maximum tolerated dose (MTD) as compared to the FLV molecule alone. The vehicle used to administer CLR180099 was PBS in this case, however any pharmaceutically suitable vehicle may be used. Each group contained 5 mice. In vivo efficacy was assessed in athymic nude mice bearing HCT 116 xenografts. The mice were flank models which were developed by injecting the hind flank of the mice with about 1x10^6 of the cells resuspended in […] of 1.2% methylcellulose. The study was initiated when group mean tumor volume reached about 120 mm^3. Tumor volume was measured using calipers - measurements of the length, width, and depth of the tumor were used to calculate the tumor volume. Two doses (2 mg/kg given 2 times or 2 mg/kg given 3 times) of CLR180099 were assessed. Each group contained 10 mice. Tumor volume was monitored for efficacy and body weight for tolerability. Total conjugated CLR180099 and free FLV were determined via mass spectrometry.
The study was initiated when group mean tumor volume reached -120 mm^3 (Day 1). CLR180099 was dosed IV at 2 mg/kg on either day 1 and 4 or day 1, 3 and 5. Docetaxel was dosed at 10 mg/kg on day 1 and 4. […] Five mice per group were dosed at each dose level. Both PDCs were tolerated up to dose of 10 mg/kg with all mice alive and showing no end organ toxicities (TABLE 5). […]

[9] = Table 1, 1 µM, 0-120 minutes, read-out: Human T½

SMILES: C=C(c1ccc(OC)c(NP(=O)(O)OP(=O)(O)OCCNC(=O)c2ccc(CCCCCCCCCCCCCCCCCCOP(=O)([O-])OCC[N+](C)(C)C)cc2)c1)c1cc(C)nc2ccccc12 [CLR2013]
half-life at 1 µM ([1]; Table 3, read-out: Human t½): > 6.67 h | half-life at 1 µM ([2]; Table 3, read-out: Mouse t½): 1.28 h

SMILES: COC(=O)[C@@H]1[C@H](O)[C@]2(O)c3c(OC)cc(OCCCCNC(=O)OCC(C)(C)SSCCCCCCCCCCCCCCCCCCOP(=O)([O-])OCC[N+](C)(C)C)cc3O[C@]2(c2ccc(OC)cc2)[C@H]1c1ccccc1 [CLR1800095]
half-life at 1 µM ([1]; Table 4, read-out: Human t½): > 6.67 h | stability in mouse plasma (in words) [2]: some instability | half-life at 1 µM ([2]; Table 4, read-out: Mouse t½): 3.32 h

SMILES: C=C(c1ccc(OC)c(NC(=O)OCc2ccc(OP(=O)(O)OP(=O)(O)OCCNC(=O)c3ccc(CCCCCCCCCCCCCCCCCCOP(=O)([O-])OCC[N+](C)(C)C)cc3)cc2)c1)c1cc(C)nc2ccccc12 [CLR2000045]
half-life at 1 µM ([1]; Table 3, read-out: Human t½): > 6.67 h | half-life at 1 µM ([2]; Table 3, read-out: Mouse t½): > 6.67 h | IC50 [3]: 76 nM | eradication of the tumor ([4]; 1 mg/kg IV 3 times per week for 2 weeks (highest dose)): ~100% | tumor volume compared to vehicle control ([4]; 1 mg/kg IV, 2 highest dose groups (2x and 3x per week for 2 weeks), p≤0.05 and p≤0.01): statistically significant reduction in tumor volume | survival (Kaplan-Meier) ([4]; 1 mg/kg three times per week for 2 weeks, vs vehicle (p≤0.001) and 1 time per week (p≤0.05)): significant increase in survival | survival (Kaplan-Meier) ([4]; 1 mg/kg twice a week for two weeks, vs vehicle (p≤0.05)): significant increase | tolerability as measured by body weight loss ([4]; two highest doses): well tolerated | uptake in tumor cells ([5]; 1 µM): significant uptake | release of the warhead ([5]; at each timepoint): approximately 50% | uptake and release of payload, share of exposed drug ([5]; tumor cell lines): 20-40% | IC50 [6]: 51 nM | uptake in normal tissue [7]: minimal uptake

SMILES: CC[C@H](C)[C@@H]([C@@H](CC(=O)N1CCC[C@H]1[C@H](OC)[C@@H](C)C(=O)N[C@H](C)[C@@H](O)c1ccccc1)OC)N(C)C(=O)[C@@H](NC(=O)[C@H](C(C)C)N(C)C(=O)OCc1ccc(NC(=O)[C@H](CCCNC(N)=O)NC(=O)[C@@H](NC(=O)c2ccc(CCCCCCCCCCCCCCCCCCOP(=O)([O-])OCC[N+](C)(C)C)cc2)C(C)C)cc1)C(C)C [PDC-SM3] (X1-V[Cit][PABC][NMeV]V[Dil][Dolaproine]-X2)
half-life at 1 µM [1, 9]: > 6.67 h | half-life at 1 µM ([2]; Table 1, 1 µM, 0-120 minutes, read-out: Mouse T½): > 6.67 h

half-life at 1 µM [1, 9]: 0.9 h | half-life at 1 µM ([1]; Table 3, read-out: Human t½): 1.28 h | half-life at 1 µM ([1]; Table 4, read-out: Human t½): 0.9 h | half-life at 1 µM ([2]; Table 3, read-out: Mouse t½): 0.95 h
SMILES: CC(C)[N+](C)(CCOC(=O)C1c2ccccc2Oc2ccccc21)C(C)C [Propantheline, reference compound]

SMILES: CC(=O)O[C@@]12CO[C@@H]1C[C@H](O)[C@@]1(C)C(=O)[C@H](O)C3=C(C)[C@@H](OC(=O)[C@H](O)[C@@H](NC(=O)OC(C)(C)C)c4ccccc4)C[C@@](O)([C@@H](OC(=O)c4ccccc4)[C@H]21)C3(C)C [docetaxel]
deaths in treatment arm [8]: multiple deaths starting at day 18 and ending at day 26
